# T1: Biotin-AEEEIYGEFEAKKKKC (SEQ ID NO:4)
# T1 sequence: AEEEIYGEFEAKKKKC
# T2: Biotin-AEEEIYGEFEAKKKKC (SEQ ID NO:4), fully phosphorylated by c-Src kinase
# T2 chain: AEEEIYGEFEAKKKKC
# T3: H2N-(CH2)4-CO-(SEQ ID NO:1)-NH-CH2-Fc
# T3 chain: AANL
# T4: Z-Ala-Ala-Asn-AMC
# T4 chain: AAN
# B1: PTP1B (residues 1-322, molecular weight 37.4 kDa) (protein)
# chain: MEMEKEFEQIDKSGSWAAIYQDIRHEASDFPCRVAKLPKNKNRNRYRDVSPFDHSRIKLHQEDNDYINASLIKMEEAQRSYILTQGPLPNTCGHFWEMVWEQKSRGVVMLNRVMEKGSLKCAQYWPQKEEKEMIFEDTNLKLTLISEDIKSYYTVRQLELENLTTQETREILHFHYTTWPDFGVPESPASFLNFLFKVRESGSLSPEHGPVVVHCSAGIGRSGTFCLADTCLLLMDKRKDPSSVDIKKVLLEMRKFRMGLIQTADQLRFSYLAVIEGAKFIMGDSSVQDQWKELSHEDLEPPPEHIPPPPRPPKRILEPHNG
# B2: Recombinant human legumain/asparaginyl endopeptidase (R&D Systems), activated in 50 mM CH3COONa (pH 4.0) and 100 mM NaCl (protein)
# chain: VPIDDPEDGGKHWVVIVAGSNGWYNYRHQADACHAYQIIHRNGIPDEQIVVMMYDDIAYSEDNPTPGIVINRPNGTDVYQGVPKDYTGEDVTPQNFLAVLRGDAEAVKGIGSGKVLKSGPQDHVFIYFTDHGSTGILVFPNEDLHVKDLNETIHYMYKHKMYRKMVFYIEACESGSMMNHLPDNINVYATTAANPRESSYACYYDEKRSTYLGDWYSVNWMEDSDVEDLTKETLHKQYHLVKSHTNTSHVMQYGNKTISTMKVMQFQGMKRKASSPVPLPPVTHLDLTPSPDVPLTIMKRKLMNTN
# Assays:
# [1] = system: T1, Biotin-AEEEIYGEFEAKKKKC (SEQ ID NO:4)
# [2] = system: H2N-(CH2)4-CO-(SEQ ID NO:1)-NH-CH2-Fc
# [3] = system: H2N-(CH2)4-CO-(SEQ ID NO:2)-NH-CH2-Fc
# [4] = system: H2N-(CH2)4-CO-(SEQ ID NO:5)-NH-CH2-Fc
# [5] = biological target: T2, Biotin-AEEEIYGEFEAKKKKC (SEQ ID NO:4), …
# [6] = biological target: T3, H2N-(CH2)4-CO-(SEQ ID NO:1)-NH-CH2-Fc
# Z-Ala-Ala-Asn-AMC = biological target: T4, Z-Ala-Ala-Asn-AMC
molecule,measurement,setting,value
"Active c-Src kinase protein (N-terminal 6His-tagged recombinant human c-Src, molecular weight 61.7 kDa)",phosphorylation of the immobilized peptide,[1],The peptide at the VACNF NEA was fully phosphorylated with 1-hour further incubation in c-Src kinase solution
"Purified recombinant human cathepsin B (R&D Systems), activated in 5 mM DTT and 25 mM MES buffer (pH 5.0)",ACV peak current after adding activated cathepsin B (negative control),[2],"The peak current ip,acv of these two tetrapeptides did not show the characteristic exponential decay while the activated cathepsin B was added"
same,cleavage product by HPLC/MS after 2 h incubation in solution,[3],"The cleavage product, Phe-Gly-NH-CH2-Fc appeared at 37 min, was found confirming that the proteolysis took place at the arginine site"
same,"ACV peak current after adding activated cathepsin B (negative control, P1 Arg replaced by Asn)",[4],"The peak current ip,acv of these two tetrapeptides did not show the characteristic exponential decay while the activated cathepsin B was added"
B1,"(kcat/Km)[E0], slope of -d(|Z|/|Z0|)/dt vs. |Z|/|Z0|, [E0]=2.4 nM",[5],a slope of 0.0522 s^-1
same,decrease in |Z| (REIS) over ~100 s after adding 2.4 nM PTP1B,[5],"A sharp decrease in |Z| by ~1,150Ω (~6.3%)"
same,"decrease in |Z| (REIS) over ~100 s after adding 2.4 nM PTP1B, percent",[5],"A sharp decrease in |Z| by ~1,150Ω (~6.3%)"
same,"specificity constant kcat/Km (REIS, 2.4 nM PTP1B)",[5],2.2e+07 M⁻¹ s⁻¹
same,"specificity constant kcat/Km (REIS, average of 7 data sets at three PTP1B concentrations)",[5],an average value of 2.1×10^7 M^-1 s^-1 and a standard deviation of 1.0×10^6 M^-1 s^-1
B2,"(kcat/Km)[E0], slope of reaction rate vs. surface adsorbed Fc, [E0]=773 nM",[6],a slope of 6.32×10^-4 s^-1
same,"(kcat/Km)[E0], slope of vi vs. Γsurf, [E0]=80.1 nM",[6],the slope of 6.30×10^-4 s^-1 at [E0]=80.1 nM
same,"specificity constant kcat/KM (electrochemistry, EC, VACNF NEAs)",[6],11300 M⁻¹ s⁻¹
same,"specificity constant kcat/Km (ACV on VACNF NEA), as given in the summary of Example 1",[6],8200 M⁻¹ s⁻¹
same,"specificity constant kcat/Km (ACV, single experiment at 80.1 nM)",[6],7900 M⁻¹ s⁻¹
same,time constant in the fit of surface adsorbed Fc vs. time,[6],the time constant is 1101 s (~48 min)
same,time constant of the exponential decay of the ACV peak current after adding legumain,[6],The time constant is 1076 s (~18 min.)
same,"specificity constant kcat/KM (fluorescence assay, FL)",Z-Ala-Ala-Asn-AMC,4300 M⁻¹ s⁻¹

# — patent US20150011421
